Laboratory results reported in the nanobody polyreactivity screen of Harvey et al. (2022).

Assay: yeast display, Sf9 membrane polyspecificity reagent, FACS + sequencing; frameworks hold sequencing errors
Method in brief: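 Polyreactivity labels are assigned by the sorting gate from which each nanobody was recovered. The gates were low and high (top ~1%), set on anti-HA fluorescence for expression and streptavidin fluorescence for reagent binding. Before sorting, galactose-induced (36–48 hours) yeast display cells were stained for 1 hour at 4 °C with 10% biotinylated, detergent-solubilized Sf9 membrane reagent.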

In the case of “QVQLVESGGGLVQAGGSLRLSCAASGSIFDEYAMGWYRQAPGKERELVAVISTSGSTYYADSVKGRFTISRDNAKNPVYLQMNCLKPEDTGVYSSNAAIYTSSYRSYDYWGQGTQVTVTS”, the “polyreactivity (PSR sort gate)” value is reported as “low polyreactivity”.
For “QVQLVESGGGLVQAGGSLRLSCAASGSIFDFNAMGWYRQAPGKERELVAAIDDIDDSTYYSDSVKGRFTISRDNAKNTVYLQMNSLKPEDTAVYYCAAELRPGYRSSYGLIYDYWGQGTQVTVSS”, the “polyreactivity (PSR sort gate)” value was “low polyreactivity”.
With “QVQLVESGGGLVQAGGSLRLSCAASGSIFDFYAMGWYRQAPGKERELVAAISGSGGSTYYADSVKGRFTISRDNAKNTVYLQMNSLKPEDTAVYYCSYYYWGQGTQVTVSS” the “polyreactivity (PSR sort gate)” value was “low polyreactivity”.
With “QVQLVESGGGLVQAGGSLRLSCAASGSIFDFYAMGWYRQAPGKVRELVAAITSGSNTYYADSVKGRFTISRDNAKNTVYLQMNSLKPEDTAVYYCAARRRIYRSMGYWGQGTQVTVSS” the “polyreactivity (PSR sort gate)” value was “low polyreactivity”.
For “QVQLVESGGGLVQAGGSLRLSCAASGSIFDGNALGWYRQAPGKERELVAAISYRGGSTYYADSVKGRFTISRDNAKNTVYLQMNSLKPEDTAVYYCAAGSISTPGRGVDKPDPYDYWGQGTQVTVSS”, the “polyreactivity (PSR sort gate)” value was “low polyreactivity”.
With “QVQLVESGGGLVQAGGSLRLSCAASGSIFDGNAMGWYRQAPGKERELVAAITNSGGSTYYADSVKGRFTISRDNAKNTVYLQMNSLKPEDTAVYYCNALPFAWRRYRWVRTMYYWGQGTQVTVSS” the “polyreactivity (PSR sort gate)” value was “low polyreactivity”.
For “QVQLVESGGGLVQAGGSLRLSCAASGSIFDGSAMGWYRQAPGKERELVASISSGGSTNYADSVKGRFTISRDNAKNTVYLQMNSMKPEDTAVYYCAAEWVWYKWEFEYWGQGTQVSVSS”, the “polyreactivity (PSR sort gate)” value was “high polyreactivity”.
In the case of “QVQLVESGGGLVQAGGSLRLSCAASGSIFDGYALGWYRQAPGKEREFVAAIDTGDTRTYYADSVKGRFTISRDNAKNTVYLQMNSLKPEDTAVYYCNADDWAYGMDYWGQGTQVTVSS”, the “polyreactivity (PSR sort gate)” value is reported as “low polyreactivity”.
With “QVQLVESGGGLVQAGGSLRLSCAASGSIFDGYAMGWYRQAPGKERELVAAISQRGGSTYYADSVKGRFTISRDNAKNTVYLQMNSLKPEDTAVYYCAADSSYGTREYWGQGTQVTVSS” the “polyreactivity (PSR sort gate)” value was “low polyreactivity”.
With “QVQLVESGGGLVQAGGSLRLSCAASGSIFDGYAMGWYRQAPGKERELVAAISSGGSTYYADSVKGRFTISRDNAKNTVYLQMNSLKPEDTAVYYCNRVRRRVSTSIYNYWGQGTQVTVSS” the “polyreactivity (PSR sort gate)” value was “high polyreactivity”.
For “QVQLVESGGGLVQAGGSLRLSCAASGSIFDGYAMGWYRQAPGKERELVAAISSSGVTTYYADSVKGRFTISRDNAKNTVYLQMNSLKPEDTAVYYCATYSYTWLNYYWGQGTQVTVSS”, the “polyreactivity (PSR sort gate)” value was “high polyreactivity”.
With “QVQLVESGGGLVQAGGSLRLSCAASGSIFDLNAMGWYRQAPGKERELVAAISKSGGSTYYADSVKGRFTISRDNAKNTVYLQMISLKPEDSAVYYCAARYHYPGNWYNYWGQGTQVTVSS” the “polyreactivity (PSR sort gate)” value was “low polyreactivity”.
For “QVQLVESGGGLVQAGGSLRLSCAASGSIFDLNAMGWYRQAPGKERELVAAISSGGGTYYADSVKGRFTISRDNAKNTVYFQMNSLKPEDTAVYYCNRVTRWTYNYWGQGTQVTVSS”, the “polyreactivity (PSR sort gate)” value was “high polyreactivity”.
With “QVQLVESGGGLVQAGGSLRLSCAASGSIFDLYTMGWYRQAPGTERELVAAISRSGGSTYYADSVKGRFTISRDNAKNTVYLQMNSLKPEDTAVYYCAARGPYRPPHGDAYYTYGYWGQGTQVTVSS” the “polyreactivity (PSR sort gate)” value was “high polyreactivity”.
In the case of “QVQLVESGGGLVQAGGSLRLSCAASGSIFDPNAMGWYRQAPGKERELVAAINSGGSTDYADSVKGRFTISRDNAKNTVYLQMNSLKPEDTAVYYCNAEYGYSGVGDDYWGQGTQVTVSS”, the “polyreactivity (PSR sort gate)” value is reported as “low polyreactivity”.
For “QVQLVESGGGLVQAGGSLRLSCAASGSIFDPYAMGWYRQAPGKETELDAAITASGSSTYYADSVKGRFTISRDNAKNTVYLQMNSLKPEDTAVYYCAADRANWEYLLSWLGYDYWGQGTQVTVSS”, the “polyreactivity (PSR sort gate)” value was “low polyreactivity”.
In the case of “QVQLVESGGGLVQAGGSLRLSCAASGSIFDRYDMGWYRQAPGKERELVAAISTGGSTNYADSVKGRFTISRDNAKNTVYLHMNSLKPEDTAVYYCADRYLYRMYYWGQCTQVTVSS”, the “polyreactivity (PSR sort gate)” value is reported as “low polyreactivity”.
In the case of “QVQLVESGGGLVQAGGSLRLSCAASGSIFDSNAMGRYRQAPGKERELVAAISLSGGSTYYADSVKGRFTISRDNAKNTVYLQMNSLKPVDTAVYYCAKDGWYEYYWGQGTQVTVSS”, the “polyreactivity (PSR sort gate)” value is reported as “low polyreactivity”.
With “QVQLVESGGGLVQAGGSLRLSCAASGSIFDSNAMGWYRQAPGKETELVASITSDGDTYYADSVKGRFTISRDNAKNTVYLQIKSVKPEDTAVYYCAAYVPYSGLDYWGQGTQVTVSS” the “polyreactivity (PSR sort gate)” value was “low polyreactivity”.
With “QVQLVESGGGLVQAGGSLRLSCAASGSIFDSNTMGWYRQAPRKERELVAAITGTGTSTYYADSVKGRFTISRDNAKNTVYLQMNSLKPEDTAVYYCAADLEYKTWWYDYWGQGTQVTVSS” the “polyreactivity (PSR sort gate)” value was “low polyreactivity”.
With “QVQLVESGGGLVQAGGSLRLSCAASGSIFDSYAMGWYRQAPGKERELVADITSDGSTHYADSVKGRFTISRDNAKNTVYLQMNSLKAEDTAVYYCAADYFFYWLGVPVVDVYYWGQGTQVTVSS” the “polyreactivity (PSR sort gate)” value was “low polyreactivity”.
In the case of “QVQLVESGGGLVQAGGSLRLSCAASGSIFDSYDRGWYREAPGKERELVAAITSGGSTNYADSVKGRFTISRDNAKNTVYLQMNSLKPEDTAVYYCAAYYWYPVYYGYDYGGQGTQVTVSS”, the “polyreactivity (PSR sort gate)” value is reported as “low polyreactivity”.
With “QVQLVESGGGLVQAGGSLRLSCAASGSIFDSYTMGWYRQAPGKERELVATINRSGGSTYYADSVKGRFTISRDNAKNTVYLQMNSLKPEDTAVYYCANVYPYTPYSSWRSKYDYWGQGTQVTVSS” the “polyreactivity (PSR sort gate)” value was “low polyreactivity”.
With “QVQLVESGGGLVQAGGSLRLSCAASGSIFDTNAMRWYRQAPGKERELVAAISFSGVRTYYEDSVKGRFTISRYNAKNTVSLQMYSLKPEDTAVYYCAAESGKYLESRYRYYTRYYYWGQGTEVTVSS” the “polyreactivity (PSR sort gate)” value was “high polyreactivity”.
With “QVQLVESGGGLVQAGGSLRLSCAASGSIFDTYAMGWYRQAPGKEREFVAAISGTDGSTYYADSVKGRFTISRDNAKNTVYLQMNSLKPEDTAVYYCNAEPPRGDTVSSGGEMDYWGQGTQVTVSS” the “polyreactivity (PSR sort gate)” value was “low polyreactivity”.
For “QVQLVESGGGLVQAGGSLRLSCAASGSIFDTYAMGWYRQAPGKEREFVAAISRNGGSTYYADSVKGRFTISRDNAKNTVYLQMNSLKAEDTAVYYCATDKRHKFDYWGQGTQVTVSS”, the “polyreactivity (PSR sort gate)” value was “low polyreactivity”.
For “QVQLVESGGGLVQAGGSLRLSCAASGSIFDTYAMGWYRQAPGKERELVAAISSGGRTYYADSVKGRFSISRDNAKNTVYLQMNSLKPEDTAVYYCAVRPRPGYYYWGQGTQVSVSS”, the “polyreactivity (PSR sort gate)” value was “high polyreactivity”.
With “QVQLVESGGGLVQAGGSLRLSCAASGSIFDTYAMGWYRQAPGKERELVAAITQSGDRTYYADSVKGRFTISRDNAKNTVYLQMNSLKPEDTAVYYCYTRRGSAWSCDYWGQGTQVTVSS” the “polyreactivity (PSR sort gate)” value was “low polyreactivity”.
With “QVQLVESGGGLVQAGGSLRLSCAASGSIFDTYAMGWYRQAPGKERELVAAITRRAGSTYYADSVKGRFTISRDNAKNTVYLQMNSLKPEDTPVYYGAAGYDRYPGVIDEYWGQGTEVTVSS” the “polyreactivity (PSR sort gate)” value was “low polyreactivity”.
In the case of “QVQLVESGGGLVQAGGSLRLSCAASGSIFDTYAMGWYRQAPGKERELVAAITWSGSSTYYADSVKGRFTISRDNSKNTVYLQMNSLKPEDTAVYYCAKDYYREVTTEYDYWGQGTQVTVSS”, the “polyreactivity (PSR sort gate)” value is reported as “high polyreactivity”.
For “QVQLVESGGGLVQAGGSLRLSCAASGSIFDTYTMGWYRQAPGKERELVAAITSGTTTTYADSVKGRFTISRDNAKNTVYLQMNSLKPEDTAVYYCAARTSGSFDYCGQGTQVTVSS”, the “polyreactivity (PSR sort gate)” value was “low polyreactivity”.
In the case of “QVQLVESGGGLVQAGGSLRLSCAASGSIFDVNAMGWSRQPPGKERELVAVISSSDSTDYADSVKGRFTISRDNAKNTVYLQMNSLKPEDTAVYYCAADEYQDRPDDYWGQGTQVTVSS”, the “polyreactivity (PSR sort gate)” value is reported as “low polyreactivity”.
With “QVQLVESGGGLVQAGGSLRLSCAASGSIFDVNAMGWYRQAPGKQRELVAAISDSGGSTYYADSVKGRFTISRDNAKNTVYLQMNSLKPEDTAVYYCNADWSWYNYYDFDYWGQGTQVTVSS” the “polyreactivity (PSR sort gate)” value was “low polyreactivity”.
For “QVQLVESGGGLVQAGGSLRLSCAASGSIFDVYTMGWYRQAPGKERELVAAINTGGGSTYYADSVKGRFTISRDNAKNTVYLQMNSLKPEETAVYYCAASVYHYGPLYYWGQGTQVTVSS”, the “polyreactivity (PSR sort gate)” value was “low polyreactivity”.
In the case of “QVQLVESGGGLVQAGGSLRLSCAASGSIFDWNALGWYRQAPGKERELVASITGSGGGTNYADSLKGRFTISRDNAKNTVYFQMNSLNPEDTAVYFCNADGLNLDGHEYWGQATQVTVSS”, the “polyreactivity (PSR sort gate)” value is reported as “low polyreactivity”.
In the case of “QVQLVESGGGLVQAGGSLRLSCAASGSIFDWYAIGWYRQAPGKEGELVAAISSGDSTYYADSVKGRFTISRDNAKNTVVLQMNSLKAEETSVSDCAAVTKLSGIRYNYWGQGSQVTVSS”, the “polyreactivity (PSR sort gate)” value is reported as “low polyreactivity”.
With “QVQLVESGGGLVQAGGSLRLSCAASGSIFDWYAMGWYRQAPGKEGELVAAISSGDSTYYADSVKGRFTISRDNAKKTVYLQMNSLKPEDTAVYYCAAVTKLSGIRYNYWGQGTQVTVSS” the “polyreactivity (PSR sort gate)” value was “low polyreactivity”.
In the case of “QVQLVESGGGLVQAGGSLRLSCAASGSIFDWYAMGWYRQAPGKERELVAAIDSSGSSTYYADSVKGRFTISRDNAKNTVYLQMNSLKPEDTAVYYCAADSDWIRYWFGSLYGSDYWGQGTQVTVSS”, the “polyreactivity (PSR sort gate)” value is reported as “low polyreactivity”.
With “QVQLVESGGGLVQAGGSLRLSCAASGSIFDWYVMGWYRQPPGKERELVATITRDGSTNYADSVKGRFTISRDNAKNTVYLQMNSLKPEDTAVYYCNAASRAYGYNYWGQGTQVTVSS” the “polyreactivity (PSR sort gate)” value was “low polyreactivity”.
In the case of “QVQLVESGGGLVQAGGSLRLSCAASGSIFDYNAMGGYRQAPGKERELVAAISSGGSTYYADSVKGRFTISRDNAKNTVNLQMNSLKPEDTAVYYCAVKFWVVIQFDYWGQGTHVTVSS”, the “polyreactivity (PSR sort gate)” value is reported as “low polyreactivity”.
In the case of “QVQLVESGGGLVQAGGSLRLSCAASGSIFDYNAMGWYRQAPGKERELVASIRWSGGRTYYADSVKGRFTISRDNAKNTVYLQMNSLKPEDTAVYYCNRKPQEYVLQGSSNGYDYWGQGTQVTVSS”, the “polyreactivity (PSR sort gate)” value is reported as “low polyreactivity”.
With “QVQLVESGGGLVQAGGSLRLSCAASGSIFDYNAMGWYTQAPGKERELVAAITSGGSTNYADSVKGRFTISRDNAKNTVYLQMNSLKPEDTAVYYCAADHDYYPSNLDYWGQGTQVTVSS” the “polyreactivity (PSR sort gate)” value was “low polyreactivity”.
With “QVQLVESGGGLVQAGGSLRLSCAASGSIFDYNTMGWYRQAPGKERELVAVISGTGGSTYYADSVKGRFTISRGNAKNTVYLQMNSLKPEDTAVYYCAADTFVRNQWYLVEYWGQGTQVTVSS” the “polyreactivity (PSR sort gate)” value was “low polyreactivity”.
